Here are results for 52 sequences from the supplement of paper PMC10567573.

The nature of this data set: protein stability index of a GFP-peptide fusion (GPS, HEK-293T) (PSI 1-6); higher = more stable.
[1] abbreviates: treatment: DMSO, c terminus: a fixed tail appended.
Setting [2] is: treatment: MLN4924 1 uM, 8 h, c terminus: a fixed tail appended.

± gives the standard deviation.
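Also: 24-mer peptide tiles fused after GFP, lentivirally expressed, FACS-sorted into six equal bins by GFP/DsRed ratio, decoded by Illumina sequencing, PSI is the read-weighted mean bin number.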

Turning to VGGYGTRLRPLTLSTPKPLVDFCN [GMPPB], the protein stability index by setting is: under setting [1], 2.41 ± 0.16; under setting [2], 2.46 ± 0.14.

As for VGIFHLMQIAVPCAFLLLRLLVGL [TMEM175], the protein stability index by setting is: under setting [1], 2.81 ± 0.45; under setting [2], 2.82 ± 0.47.

Turning to VHQRTHTGEKPHTCSECGKGFIQK [ZNF649], the protein stability index is, setting by setting: under setting [1], 3.67 ± 0.28; under setting [2], 3.52 ± 0.58.

On to VIEAIAQITVKALPKPPGTPVVTE [PTPRD], for which the protein stability index under setting [1] was 2.3 ± 0.4 and the protein stability index under setting [2] was 2.16 ± 0.27.

As to VIKYNVNDKFSFHEVKDNYIPVIK [RHOBTB3], the protein stability index came to 2.21 ± 0.44 under setting [1] and 2.75 ± 0.34 under setting [2].

Take VKRLHEVGRTEPELLVAHAYTRYL [HMOX1]: the protein stability index runs as follows: under setting [1], 2.2 ± 0.26; under setting [2], 2.4 ± 0.36.

VLENNLEAVARHMLIFSLALEEPE [DNAAF3] returned a protein stability index under setting [1] of 2.74 ± 1.1 and a protein stability index under setting [2] of 2.52 ± 0.37.

Regarding VLEQEETAAASRERQEEQSAAIHI [EPB41L3], the protein stability index reads like this: under setting [1], 5.33 ± 0.24; under setting [2], 5.16 ± 0.23.

For the sequence VLGGFLYAVGGSDGTSPLNTVERY [KLHL20], the protein stability index is, setting by setting: under setting [1], 2.18 ± 0.32; under setting [2], 2.47 ± 0.22.

In the case of VLGIPLTLVMFQSLGERMNTFVRY [KCNK9], the protein stability index is, setting by setting: under setting [1], 3.24 ± 0.65; under setting [2], 2.83 ± 0.48.

Regarding VLSYLGLLSQEKLQEQHLSSPQGV [BCL2L13], the protein stability index under setting [1] came out at 2.29 ± 0.31 and the protein stability index under setting [2] came out at 2.32 ± 0.38.

In the case of VLYLMMPIVNISEVLGPLCLMLLM [PHTF1], the protein stability index by setting is: under setting [1], 3.07 ± 0.62; under setting [2], 2.67 ± 0.47.

For the sequence VMKLEISPHRKRSDDSDEDEPCAI [DLC1], the protein stability index under setting [1] was found to be 5.21 ± 0.52 and the protein stability index under setting [2] came out at 4.93 ± 0.28.

With VNKVCGAACSSKRSPIIDVKNDRD [SERPINB5], the protein stability index runs as follows: under setting [1], 3.77 ± 0.33; under setting [2], 3.89 ± 0.15.

Turning to VPGHQTPSDLDQFSDSSLIEDSQA [LURAP1L], the protein stability index under setting [1] stood at 5.39 ± 0.15 and the protein stability index under setting [2] is 5.41 ± 0.17.

As to VPGHRSERAIRTQPKQLIVDDLKG [SPRY1], the protein stability index is 4.25 ± 0.34 under setting [1] and 4.13 ± 0.47 under setting [2].

Regarding VQEHARCVHPRGGVIQSVSSWKHG [C18orf25], the protein stability index stood at 3.08 ± 0.28 under setting [1] and 3.03 ± 0.4 under setting [2].

Take VQFHRHHGQEGSILVTKVEEPSKY [GMPPB]: the protein stability index is, setting by setting: under setting [1], 3.45 ± 0.31; under setting [2], 3.58 ± 0.27.

VQQDPALSSNREAHQHRDKMQQSK [CSNK1G3]: the protein stability index is, setting by setting: under setting [1], 5.16 ± 0.54; under setting [2], 5.27 ± 0.21.

With VRGHHPKSGEEAVTVLEDLEKGLE [ZNF232], the protein stability index amounted to 4.73 ± 0.21 under setting [1] and 4.72 ± 0.63 under setting [2].

Take VRKHPAVKEKGSTLDLSDLEAEKL [SCD]: the protein stability index is, setting by setting: under setting [1], 5.12 ± 0.3; under setting [2], 4.82 ± 0.14.

As for VSLSLENRELWKEFSSVGTEMIIT [TBX6], the protein stability index reads like this: under setting [1], 2.71 ± 0.62; under setting [2], 2.31 ± 0.45.

As to VSRLTDTTKFTGSHKERFDPSGKG [TPPP], the protein stability index reads like this: under setting [1], 4.39 ± 0.1; under setting [2], 4.5 ± 0.22.

In the case of VSRREGALGWAPAAPPPLKDDPEG [ZBED3], the protein stability index runs as follows: under setting [1], 5.24 ± 0.37; under setting [2], 5.43 ± 0.12.

Take VSSSEQLQSYQAEIIELRRTVNAL [KRT33B]: the protein stability index is 3.12 ± 0.22 under setting [1] and 3.2 ± 0.42 under setting [2].

Turning to VVNTDHGSPEQLQIPVTDSGRHIL [SDE2], the protein stability index reads like this: under setting [1], 4.18 ± 0.15; under setting [2], 4.29 ± 0.45.

For the sequence VWDLNMEARPIETYQVHDYLRSKL [PPP2R2C], the protein stability index is, setting by setting: under setting [1], 2.42 ± 0.43; under setting [2], 2.55 ± 0.095.

In turn, VWNRKLDLLCKTSHLSDTGISALV [WDR41] displayed a protein stability index under setting [1] of 2.26 ± 0.27 and a protein stability index under setting [2] of 2.2 ± 0.34.

On to VWTSPRRLVELAGQSLLKDEALAI [PRAME], for which the protein stability index is, setting by setting: under setting [1], 3.36 ± 0.15; under setting [2], 3.34 ± 0.21.

On to WAANAGVTASPPTDLIWKNQNSWG [LMNB1], for which the protein stability index by setting is: under setting [1], 2.46 ± 0.26; under setting [2], 2.48 ± 0.5.

On to WELVVLGKLKWNLAAVTPHDFIEH [CCND2], for which the protein stability index reads like this: under setting [1], 2.7 ± 0.71; under setting [2], 2.62 ± 0.39.

WFKTRRKEMTQKLEALHLEALCEE [DENND6A]: the protein stability index is, setting by setting: under setting [1], 3.29 ± 0.27; under setting [2], 3.88 ± 0.42.

As to WFSDPSDTALLNLLPMLDALRFTA [CTDNEP1], the protein stability index by setting is: under setting [1], 2.73 ± 0.58; under setting [2], 2.98 ± 0.67.

WGHCEVTMRYINGLDPEPLPLMDL [SPSB4]: the protein stability index is, setting by setting: under setting [1], 2.49 ± 0.26; under setting [2], 2.5 ± 0.4.

Turning to WIIKSNYQGLPVRCVKSIIRQVLQ [SRPK2], the protein stability index is, setting by setting: under setting [1], 2.75 ± 0.48; under setting [2], 2.78 ± 0.5.

For the sequence WLQERYEIVGNLGEGTFGKVVECL [CLK3], the protein stability index is, setting by setting: under setting [1], 2.24 ± 0.068; under setting [2], 2.27 ± 0.12.

As for WLRVLNPDLVKGPWTKEEDQKVIE [MYBL2], the protein stability index came to 2.61 ± 0.36 under setting [1] and 2.92 ± 0.18 under setting [2].

For the sequence WTFYPRFSSNIHTYHVGKQCFFNG [SPATS1], the protein stability index is, setting by setting: under setting [1], 2.74 ± 0.53; under setting [2], 2.24 ± 0.33.

Regarding YAATTTPFTPLHIKVKPKRVGIFL [TRIM39], the protein stability index stood at 2.52 ± 0.58 under setting [1] and 2.81 ± 1.1 under setting [2].

For the sequence YAVTPLPWCPHLVAVCPIPAAGLD [HDAC6], the protein stability index was found to be 2.99 ± 0.49 under setting [1] and 2.33 ± 0.48 under setting [2].

Regarding YDILPLSPVSRNRLAQVKRKILVL [CTDNEP1], the protein stability index reads like this: under setting [1], 2.11 ± 0.36; under setting [2], 2.35 ± 0.22.

For YFCYKAILEFAEKEGMVSSGQNLL [PTPN9], the protein stability index was found to be 2.2 ± 0.31 under setting [1] and 2.38 ± 0.46 under setting [2].

In turn, YGGRSVAPQNSFSAKLAPHYFHSI [KCNK9] came in with a protein stability index under setting [1] of 2.23 ± 0.11 and a protein stability index under setting [2] of 2.3 ± 0.3.

Regarding YLEVLETMDNKKGRRYEAVKWMVV [CLCN6], the protein stability index was 2.4 ± 0.72 under setting [1] and 2.25 ± 0.28 under setting [2].

With YLQKIEEFAEMVEREEEDDALDSE [KCNG1], the protein stability index by setting is: under setting [1], 5 ± 0.51; under setting [2], 5.15 ± 0.17.

As to YPFQDSEPVLLFGKIRRGAYALPA [TRIB3], the protein stability index by setting is: under setting [1], 2.48 ± 0.27; under setting [2], 2.66 ± 0.12.

In the case of YPFVLFYSKFHGLEMCVDARTFGN [KMT2E], the protein stability index runs as follows: under setting [1], 2.87 ± 0.51; under setting [2], 2.28 ± 0.33.

With YPGIRAGRKNAAPLTIRPPTDWE [TRIM39], the protein stability index is, setting by setting: (treatment: DMSO, c terminus: native) 3.44 ± 0.31; (treatment: MLN4924 1 uM, 8 h, c terminus: native) 3.9 ± 0.36.

As for YRSEDLLDVDTAAGGFQQRQGLKY [FBXO3], the protein stability index is, setting by setting: under setting [1], 4.25 ± 0.18; under setting [2], 4.18 ± 0.29.

With YRTVVRPTYKVMYKIVTAREWRCC [EMID1], the protein stability index runs as follows: under setting [1], 2.71 ± 0.79; under setting [2], 2.38 ± 0.44.

As for YSHLGGIDYKTTTILLDGQRVKLK [RAB40A], the protein stability index runs as follows: under setting [1], 3.12 ± 0.29; under setting [2], 3.25 ± 0.23.

Sequence YYIDDVFHALVREIRRKEKEAVLA [RIT1] displayed a protein stability index under setting [1] of 2.27 ± 0.32 and a protein stability index under setting [2] of 1.94 ± 0.53.
